Experimental findings from paper doi:10.1101/2024.08.01.606155 (bioRxiv, 2024) are described below.

This series deals with the molecule itself. Nature of the series: SEC. For orientation: Size exclusion chromatography separates by hydrodynamic size, large species first.

B1: PMK3 (p38 MAPK of C. elegans), full length (enzyme, UniProt O44514 1-474, looked up)
chain: MASVPSSSSLPVSHVRRHEDVSTPSAPPTKRSNNQSQPPESYEPNTWLQQQREQEQQKKLAAENIKKQSIEATGNNEMVGEEEEDILSKPCGPHKRRFQFVMIRNITFAIPEGYDVEPNSIEYLGGGSFGNVIKTSAVCRDGLRRYVAIKKMREPFFDPHHARRIFRETKLLQLMRHDNIICALDIYTPDEENDFRDVYVVTEFAGRSLYQILKQQRDYGRRVLTDEHIKFIIYQIIRALKYIHSANIIHRDLKPGNLALTDDSDLMILDFGLARSLEKKDTSLTQYVQTRWYRSPEVIYWKIDSYTNLADMWSLGCIAAELLTGEPLFPGDEPNAQYQRITQLCGSPDEELLTKIENDNSSAIKAVIQSYTTHKRRNFRDVFSAHNPSEDFIDLLEKLLVLDPEKRITVEEAIQHPYLAEFSLPEDEPRADHIFDLDDSQARTRFEWRDAVWKEIMNYKRLSSSPLIPGEADR
In the case of B1, the binding result is “binds”.
